4 variants from IntAct's records for PubMed 22575644 can be followed below.

B1: Serine/threonine-protein kinase STK11 (Homo sapiens), Q15831 (parent)
chain: MEVVDPQQLGMFTEGELMSVGMDTFIHRIDSTEVIYQPRRKRAKLIGKYLMGDLLGEGSYGKVKEVLDSETLCRRAVKILKKKKLRRIPNGEANVKKEIQLLRRLRHKNVIQLVDVLYNEEKQKMYMVMEYCVCGMQEMLDSVPEKRFPVCQAHGYFCQLIDGLEYLHSQGIVHKDIKPGNLLLTTGGTLKISDLGVAEALHPFAADDTCRTSQGSPAFQPPEIANGLDTFSGFKVDIWSAGVTLYNITTGLYPFEGDNIYKLFENIGKGSYAIPGDCGPPLSDLLKGMLEYEPAKRFSIRQIRQHSWFRKKHPPAEAPVPIPPSPDTKDRWRSMTVVPYLEDLHGADEDEDLFDIEDDIIYTQDFTVPGQVPEEEASHNGQRRGLPKAVCMNGTEAAQLSTKSRAEGRAPNPARKACSASSKIRRLSACKQQ
partner: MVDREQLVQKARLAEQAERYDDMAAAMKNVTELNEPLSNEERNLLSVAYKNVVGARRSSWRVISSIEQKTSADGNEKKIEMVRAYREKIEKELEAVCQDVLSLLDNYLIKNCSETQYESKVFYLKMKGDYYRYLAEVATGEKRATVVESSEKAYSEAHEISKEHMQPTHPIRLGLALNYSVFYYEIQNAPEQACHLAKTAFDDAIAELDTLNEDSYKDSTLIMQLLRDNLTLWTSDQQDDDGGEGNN
B2: Serine/threonine-protein kinase STK11 (Homo sapiens), Q15831 (parent)
chain: B1 chain
B3: 14-3-3 protein zeta/delta (Homo sapiens), P63104 (parent)
chain: MDKNELVQKAKLAEQAERYDDMAACMKSVTEQGAELSNEERNLLSVAYKNVVGARRSSWRVVSSIEQKTEGAEKKQQMAREYREKIETELRDICNDVLSLLEKFLIPNASQAESKVFYLKMKGDYYRYLAEVAAGDDKKGIVDQSQQAYQEAFEISKKEMQPTHPIRLGLALNFSVFYYEILNSPEKACSLAKTAFDEAIAELDTLSEESYKDSTLIMQLLRDNLTLWTSDTQGDEAEAGEGGEN
partner: B1 chain
B4: Serine/threonine-protein kinase STK11 (Homo sapiens), Q15831 (parent)
chain: B1 chain
partner: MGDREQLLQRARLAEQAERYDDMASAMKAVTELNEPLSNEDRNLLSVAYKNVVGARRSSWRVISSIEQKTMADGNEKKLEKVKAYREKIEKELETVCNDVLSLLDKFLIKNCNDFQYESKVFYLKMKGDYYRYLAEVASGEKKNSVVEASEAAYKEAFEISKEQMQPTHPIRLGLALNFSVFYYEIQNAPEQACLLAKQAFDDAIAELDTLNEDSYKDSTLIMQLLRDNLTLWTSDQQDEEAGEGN

The variants in one test derive from B1. Conditions: with 1433g_human YWHAG.
Turning to MEVVDPQQLGMFTEGELMSVGMDTFIHRIDSTEVIYQPRRKRAKLIGKYLMGDLLGEGSYGKVKEVLDSETLCRRAVKILKKKKLRRIPNGEANVKKEIQLLRRLRHKNVIQLVDVLYNEEKQKMYMVMEYCVCGMQEMLDSVPEKRFPVCQAHGYFCQLIDGLEYLHSQGIVHKDIKPGNLLLTTGGTLKISDLGVAEALHPFAADDTCRTSQGSPAFQPPEIANGLDTFSGFKVDIWSAGVTLYNITTGLYPFEGDNIYKLFENIGKGSYAIPGDCGPPLSDLLKGMLEYEPAKRFSIRQIRQHSWFRKKHPPAEAPVPIPPSPDTKDRWRSMAVVPYLEDLHGADEDEDLFDIEDDIIYTQDFTVPGQVPEEEASHNGQRRGLPKAVCMNGTEAAQLSTKSRAEGRAPNPARKACSASSKIRRLSACKQQ [T336A], the “effect of a mutation on the interaction” value is reported as “disrupting interaction”.

The variants in a further test derive from B2. Particulars: with 1433z_human YWHAZ.
As to MEVVDPQQLGMFTEGELMSVGMDTFIHRIDSTEVIYQPRRKRAKLIGKYLMGDLLGEGSYGKVKEVLDSETLCRRAVKILKKKKLRRIPNGEANVKKEIQLLRRLRHKNVIQLVDVLYNEEKQKMYMVMEYCVCGMQEMLDSVPEKRFPVCQAHGYFCQLIDGLEYLHSQGIVHKDIKPGNLLLTTGGTLKISDLGVAEALHPFAADDTCRTSQGSPAFQPPEIANGLDTFSGFKVDIWSAGVTLYNITTGLYPFEGDNIYKLFENIGKGSYAIPGDCGPPLSDLLKGMLEYEPAKRFSIRQIRQHSWFRKKHPPAEAPVPIPPSPDTKDRWRSMAVVPYLEDLHGADEDEDLFDIEDDIIYTQDFTVPGQVPEEEASHNGQRRGLPKAVCMNGTEAAQLSTKSRAEGRAPNPARKACSASSKIRRLSACKQQ [T336A], the “effect of a mutation on the interaction” value was “disrupting interaction”.

Another test covers variants of B3. Conditions: with stk11_human STK11, Q15831.
Turning to MDKNELVQKAKLAEQAERYDDMAACMKSVTEQGAELSNEERNLLSVAYENVVGARRSSWRVVSSIEQKTEGAEKKQQMAREYREKIETELRDICNDVLSLLEKFLIPNASQAESKVFYLKMKGDYYRYLAEVAAGDDKKGIVDQSQQAYQEAFEISKKEMQPTHPIRLGLALNFSVFYYEILNSPEKACSLAKTAFDEAIAELDTLSEESYKDSTLIMQLLRDNLTLWTSDTQGDEAEAGEGGEN [K49E], the “effect of a mutation on the interaction” value is “disrupting interaction”.

Another test covers variants of B4. Conditions: with 1433f_human YWHAH.
MEVVDPQQLGMFTEGELMSVGMDTFIHRIDSTEVIYQPRRKRAKLIGKYLMGDLLGEGSYGKVKEVLDSETLCRRAVKILKKKKLRRIPNGEANVKKEIQLLRRLRHKNVIQLVDVLYNEEKQKMYMVMEYCVCGMQEMLDSVPEKRFPVCQAHGYFCQLIDGLEYLHSQGIVHKDIKPGNLLLTTGGTLKISDLGVAEALHPFAADDTCRTSQGSPAFQPPEIANGLDTFSGFKVDIWSAGVTLYNITTGLYPFEGDNIYKLFENIGKGSYAIPGDCGPPLSDLLKGMLEYEPAKRFSIRQIRQHSWFRKKHPPAEAPVPIPPSPDTKDRWRSMAVVPYLEDLHGADEDEDLFDIEDDIIYTQDFTVPGQVPEEEASHNGQRRGLPKAVCMNGTEAAQLSTKSRAEGRAPNPARKACSASSKIRRLSACKQQ [T336A]: the “effect of a mutation on the interaction” value is “disrupting interaction”.
